# Measured values reported in the DeepSol protein solubility set.
# Assay: soluble on expression in E. coli; label from the status in PepcDB or PDB records
row,Sequence,soluble on expression in E. coli
1,MISIVGIGSGNRVEELTIKAYNTLKNSDIGIYPGNFIGEELKELFEDKTMFTGRDITSEKIKNIFHNNRDKNICLMVSGDPALYSGQFNTNLCLDEHIKWFNEHNYNYEMIPGLSSLSILCAKKSIDLTPFSKTQNVFITSIERLRDLKCFNYTELKSILSTKPVLALYQSLKEFDNIKSLLMEFYPPTTKVIFAQSLSWSNECIFETDLKTLNETESTTSQFNDQTLILVYPSTILTIK,not soluble
2,MIESKTYAVLGLGNGGHAFAAYLALKGQSVLAWDIDAQRIKEIQDRGAIIAEGPGLAGTAHPDLLTSDIGLAVKDADVILIVVPAIHHASIAANIASYISEGQLIILNPGATGGALEFRKILRENGAPEVTIGETSSMLFTCRSERPGQVTVNAIKGAMDFACLPAAKAGWALEQIGSVLPQYVAVENVLHTSLTNVNAVMHPLPTLLNAARCESGTPFQYYLEGITPSVGSLAEKVDAERIAIAKAFDLNVPSVCEWYKESYGQSPATIYEAVQGNPAYRGIAGPINLNTRYFFEDVSTGLVPLSELGRAVNVPTPLIDAVLDLISSLIDTDFRKEGRTLEKLGLSGLTAAGIRSAVE,soluble
3,MAFFRLAALLWLGMLMSPVQAQSLSLQVLDAVVKDAVLADAEVQLGQASGRTDAQGRVTLEAADSPGSELLIRKLGYADLRAKCPCQGLSYAMSPVLKDPQSLRVVLSWSAPGEDLDAHLSYPHRLLYYATGTGPGARMNVDSTDSRGPETLTIEQPVPGDAYVYAVHDFTNGNNPESLRLGRSQAQVFVYKGPTLMRSYRVPQNRQGNLWVVFRLTANGQLQDIDRVLQGNEEVESRMSDLDPLLLANGKPIDEVLARDEGPVDAKSLNQKGEASYRKGDVGSAGIYYREAIELDPGFAQAYSNLALSNRKNSRPDEAVAADRQAIALASGPSAPTIRASAYYDMGRIYEDAGQLVTALEHYRKAREQKANPVYDKAIERLQNRLEHHHHHH,not soluble
4,MGSDKIHHHHHHMTISYEKFHLKEVINASGKMTILGVSKVSEAVLAAQRFGGEHFFEMSELSVQTGAFLANLLKVEDAQIVSSASAGIAQSVAALIGKGSLYHAYHPYTEKIEQREIVLPKGHNVDYGTPVEVMVAQGGGQVVEAGYANMCSPEHVEMMISEKTAAILYIKSHHTVQKSMLTVAEAAKVAQRHKVPLIVDAAAEEDLFKYTEAGADLVIYSGAKAIEGPSAGLVVGKKEYIDWVRLQGKGIGRAMKIGKDNILGFTQAVEEYLAHGSESGASMQERLKPFVEAINNLSDLTAKIVQDGAGRDIYRASVKVDGRKTAKEVIQALKAESPAIYTREYQANNGIIEFDIRSVNQEEMNKIVQRLQEIMDKKEK,not soluble
5,MGSDKIHHHHHHMNLVAHAQNTEPFEGVMKWAITVDIVDSKVADSYQTEIQSEDNSEVNQAIKELEQQLKDPEMQEMLLENPTIKNSMLKKLQQLKAAQTTNQENSTNSIFPSALSIFLKNNNSFTKIDGGSMVKLTGNMLYLNTNKNTYFIKDKTSTYSVINDTARLNTNDSLIALIATTDTTMILDCICIKYILTTKENNEIKTSYIWITNDLPSMNSAAFRSLGFMDGNLHHEAFKEMKGIPMRIEIFEKGLKMNMEVSEISMELVADTYFTIPSNYRESPFGF,not soluble
6,LDSLNELAVFVDTELKIIWANKAALEYMNMGLEKAIGVCLKVAPGISGPLVEHLNLEEIFTTGEKKSGEYTAQDGRVWFAQAIPVPDEQGKIIGILQTCRDVT,not soluble
7,MAHHHHHHMIARDPPQEGRLPDPSRLPYDDERFAEMLLEMEVNGVIDETWQDAKKARMEDVKEIANILSSLKVRDLCCVDVSEKTSNFDYMMFGTCEGARHIHLAAWAVQDADKVHRISKIKRQQTDELWEVVPVGRIVVNLMVESFREEMTLERKWAVTRSMDPLAAANAPISEGRQVKAHGLWTLTLNLQDLEDFEVDYCKDILMRQM,soluble
8,MLSGVGAPVGKQMLAGTEVAAMQINKAGGLLGREVELVIRDDKYNSSESVAVARELAGDGINLLLGGSQTVTALGLAPLAPELNMAVMIVAAAGMPVTHELFNPNIFRATANNYTQYSSLGRVLIEQNPDVRTWVSLAPDGDFGRDSALFFGKAVEKYAPGEKPTVLDTIYTQATATDFRTQINQLMSSDAEGLYIGIAASAQISFFQQARSVGLYDKFKAIGEVGNGDITGKAMGRNTHPNLWSVCHWIYNAEPFASNPVSKQLYEDYVTLKGDEMPSAQVAAGHRAAMAIFEGIRAAGSTETEAVLAAIEDVEFETVGGPVSFRKEDHQLVNTNYYSQMGPSREEPFFAFNKVVSIDAAEMIEPATPGKAFDISELPQLEHHHHHH,not soluble
9,MAISKLFFAYFHKNEKPFKMLCLPLLPLKNVINQMSFESVWRLSKTSRKMYEKIKNVKKSIYKIVIDNRFEYNIIYPRFKTRILRFEKKSDFVSVYNEMGTNKEITASVYLKFSVDFWIELFYKLDKRGPGKLRSSVYKLNHLKKRLKYLNRFDELFSIKHVDLVIDKYKLFGDSISHPLFQKCDYMEIVGNTSYISNNEMNFVLNNFKLKNGLLTNCLIAEDFDVTAMQQIPRLVIFNAQHITVEDLIKMDCETIKLCYHQFKPRHINQLLHHWLSGEMPKLRRFRLNFYCDTTWIGVVLSGIEHSKWDGQRRAKFFRDGIESIDCGNGFDIERNDGLLATFSSLEDSIDFVVWGNISAL,not soluble
10,MGSDKIHHHHHHMSVGIRHDDLRRRNRAMVIAAVRRAGRPSRTEIAATTGLSHSTISAISSDLIGEGILAEGKPSEAGALKRGRPQVGLGLNPEAAAVMTVVLSLNFLSVAVIDYAGQVISEEQRRLDTLTMSREALIGECVAIVRRRLEDPDIDVRSVARIALAIQGITDTEARAMLWSPITPQTDIAFADILEAEFGIPATMENDCNMMAVALRWRDPERYRDDFIAILLSHGIGMGLVLKGELFTGTHSSGGEFGHMIHRPGGALCRCGRRGCVEAYAGNYAIWRNARQLSEDTEPVADVSDAQMRALAATARERDGPEREAYRKAGEALGYGLGSLFALIDPAPVAMVGVSAAAFDLIEPALREAIAQTAGGQHSESISFDTEPNELPLIREGCAMRALTFVDQEIFAPGVQTKAGLAAKKNVA,not soluble
11,MTAKQFRHGGENLAVRYALADCELGRCLVAESERGICAILLGDDDATLISELQQMFPAADNAPADLMFQQHVREVIASLNQRDTPLTLPLDIRGTAFQQQVWQALRTIPCGETVSYQQLANAIGKPKAVRAVASACAANKLAIVIPCHRVVRGDGSLSGYRWGVSRKAQLLRREAENEER,soluble
12,MAKGTKYVSKVPDEHGFIEWSTEENLIWQELFTRQIACIKDKACDEYHEGLAKLNLPTDRIPQLDEVSKVLKVSTGWECYPVPALIGFGEFFRLLSEKKFPVATFIRSREEMDYLQEPDIFHEIFGHCPLLTNSSFANYTEAYGKMGLNATKEQRVFLARLYWFTIEFGLLDTPKGLRIYGGGVLSSPGETDYAMNNTDVDRKPFDILDVLRTPYRIDIMQPIYYMLTKVSDLDEIRKFEVDDIMELVAQAEALGLHEAKFPVKKASLEHHHHHH,soluble
13,MSLKKLDYHFHSHFSADSEELPRKHVTEAIAHGLEEICFTEHRDFYFPGMDFSLNLPEYFQEINRLQAEFKDKIKIKIGLEMGIDLRFKSEINQFIDSAPFDFVIASVHEIGDIEVYDGTEFYLQKIKEEAQREYLLACLDVVQNFENYNSFGHLDYVARYGPYTDKSIKFAENREILFEILRALASKEKALEINTRLFDDPKTEQFYSDLLINFKKLGGKFITLGTDSHIAKRDWLSIHKARTLIKKAGFHELATFSGMKIDKNKKSIKEGHHHHHH,soluble
14,MEQLLERIFDELAFLRANMATKDDVAALKDDIRALESRASHIEQTMATKDDIAAMDKRIGQIEQTMATKDDIASIEQRMATKDDVADIPFIKQAVMETLETINEIPAIKQTLAEALRKLDDVIASQARQELVLQSLAFRSLEQENEIRALKAK,not soluble
15,MQNFTLHTPTKVLFGTGQIAQLTQEIPADARILITYGGGSIKQNGVLDQVHQALKGFDFLEFGGIEPNPTYETLMKAVELCRTEGINFLLAVGGGSVLDGTKFIAAAVNYPQDPWHILETTGRDITEALPMGSVLTLPATGSEANNGAVISRRSTGDKQHFFSPHVQPLFAVLDPVVTYTLPPRQVANGVVDAFVHTIEQYLTYPVDAKVQDRFAEGLLLTLIEEGPKALKDPENYNVRANIMWSATMALNGLIGAGVPQDWATHMLGHELTARHGLDHAQTLAVVLPALLVAKKQQKRAKLLQYAERVWGLREGSEDQRIDAAIEATRHFFESLGVATRLSAYKLDGSSIPDLIKKLEEHGMTKLGEHSDITLADSKRIYEAAV,not soluble
16,MDELSDIGDWSLIQSFLAVAETGSLSAAARQLDRSQPTLGRHVQALEQALGLSLFDRHARGLKLSADGARILPLAQQAHRAMTAISVTAAGQSQSLAGTVRITASVFASHHILPPILADIRAAEPAIELELVPSDTTENLLFRAADIAVRMYRPRQVDIVARHIGDVPLCACAATSYLERKGRPTRAEDLLDFDLVGYDADPIIVKTMQALGWPVTRHSFAMRCDNQSAYWQLIRAGCGIGFGQRSIVAADPLVEVLPFELPVPPLEMWLAAPQAMRLTPRIRRVWDLLAAGLLAAPL,not soluble
17,MGSDKIHHHHHHMLDLKQIGASESRQLKQAHDRGQLSHAYLLLSSDEVEALNTAYWLICYVNCTGEKKPDGTCPACRRILAGNHPDVFLIDTEENKQSIAIDQIRPLKQELAKSPLEGDRRYFVINHAQKLTLPAANALLNLLEEPAAPVVTFLIANNGGQILPTIKSRTQIINFSQQAASSKDRLLLANGMSQEEVDQVKSSQEVDQAVKFFYQELREHDSLAIVSAHQLAGLVKKQKQGTKAWEKYVWILLKKWGEKDLEKGDCQEAANFLADLMRVDQMRQSNVGFLNNLDYLALKWQQ,not soluble
18,MSLDAVDGVRLEEGDAIDWIVFDRPQAANSFSATLLEQFSALVKDRQANGAPVLGIRGSGRGFSSGMDLGEYNATSGPTSDVLRLSSYVERWLDLWRHPKPVIVAVHGYCIGVAAQLASFADILVVAEDAMISEPTIPIGGGFIAPTWVSHVGSRHAKEFAFLPGNRIDGRMAAAWGWANCAVPASEVIACCESLAQRMKLMPPAVLAMKKRSINRAMEAAGFHAAASAIAESDALLHLEPEVTAIRNRLRTEDLKAVVGSYAGESSQEIFQREGHHHHHH,soluble
19,MSLKKIQFFDTTLRDGEQTPGVNFDVKEKIQIALQLEKLGIDVIEAGFPISSPGDFECVKAIAKAIKHCSVTGLARCVEGDIDRAEEALKDAVSPQIHIFLATSDVHMEYKLKMSRAEVLASIKHHISYARQKFDVVQFSPEDATRSDRAFLIEAVQTAIDAGATVINIPDTVGYTNPTEFGQLFQDLRREIKQFDDIIFASHCHDDLGMATANALAAIENGARRVEGTINGIGERAGNTALEEVAVALHIRKDFYQAETNIVLNQFKNSSDLISRLSGMPVPRNKAVIGGNAYAHESGIHQDGVLKNPDTYEIITPALVGVDKNSLPLGKLSGKHAFNTRMEEMGYTLTEQEQKDAFKRFKQLADAKKEVTEEDLHALILGQSSESADDFELKHLQVQYVTGGVQGAIVRIEERDGALVEDAATGSGSIEAIYNTINRLMKQDIELTDYRIQAITAGQDAQAEVHVVIKNDKGAVFHGIGIDFDVLTASAKAYLQASGKSKTASKQADFEEVKEGHHHHHH,not soluble
20,MKIGIIAAMPEELAYLVQHLDNTQEQVVLGNTYHTGTIASHEVVLVESGIGKVMSAMSVAILADHFQVDALINTGSAGAVAEGIAVGDVVIADKLAYHDVDVTAFGYAYGQMAQQPLYFESDKTFVAQIQESLSQLDQNWHLGLIATGDSFVAGNDKIEAIKSHFPEVLAVEMEGAAIAQAAHTLNLPVLVIRAMSDNANHEANIFFDEFIIEAGRRSAQVLLAFLKALD,soluble
